Measurements reported in patent CN1905899A (dated 2007).

Target: T1, EphA2 on cells (MDA-MB-231, MCF-10A, A549, MCF-7 EphA2 transfectants, prostate cancer tissue) (human, UniProt P29317 24-976)
T1 construct: whole, on cells; The other cells are human cell lines; also called EphA2受体
Experiment: immunofluorescence staining of cells

T1 sequence (P29317 24-976): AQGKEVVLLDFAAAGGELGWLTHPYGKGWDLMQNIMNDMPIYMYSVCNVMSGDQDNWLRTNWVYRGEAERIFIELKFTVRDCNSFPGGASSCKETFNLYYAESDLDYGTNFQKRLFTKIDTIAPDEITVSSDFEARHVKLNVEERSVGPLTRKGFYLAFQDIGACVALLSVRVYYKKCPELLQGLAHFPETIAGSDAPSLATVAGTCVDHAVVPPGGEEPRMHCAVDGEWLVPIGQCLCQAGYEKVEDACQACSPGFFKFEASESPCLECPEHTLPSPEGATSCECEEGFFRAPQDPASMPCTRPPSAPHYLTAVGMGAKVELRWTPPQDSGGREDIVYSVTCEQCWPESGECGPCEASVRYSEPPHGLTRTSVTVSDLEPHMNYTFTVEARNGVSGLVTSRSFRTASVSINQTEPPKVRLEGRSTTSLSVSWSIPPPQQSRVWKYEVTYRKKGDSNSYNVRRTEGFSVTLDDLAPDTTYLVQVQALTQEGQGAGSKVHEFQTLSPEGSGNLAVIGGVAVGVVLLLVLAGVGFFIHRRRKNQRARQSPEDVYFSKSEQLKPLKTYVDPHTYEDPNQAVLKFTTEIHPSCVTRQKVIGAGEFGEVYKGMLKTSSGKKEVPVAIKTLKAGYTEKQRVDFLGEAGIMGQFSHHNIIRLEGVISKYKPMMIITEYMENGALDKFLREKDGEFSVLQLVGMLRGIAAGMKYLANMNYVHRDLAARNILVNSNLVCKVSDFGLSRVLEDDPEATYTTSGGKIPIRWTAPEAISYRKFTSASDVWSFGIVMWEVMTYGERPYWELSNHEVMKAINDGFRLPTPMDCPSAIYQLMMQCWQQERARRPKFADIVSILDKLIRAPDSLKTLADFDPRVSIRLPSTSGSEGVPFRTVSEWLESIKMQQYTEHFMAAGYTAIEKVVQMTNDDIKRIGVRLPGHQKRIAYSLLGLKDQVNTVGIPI

B1: EA2 anti-EphA2 monoclonal antibody (hybridoma strain EA2.31, ATCC PTA-4380) (antibody, V domains shown)
VH: DVKLVESGGGLVKPGGSLKLSCAASGFTFSSYTMSWVRQTPEKRLEWVATISSGGTYTYYPDSVKGRFTISRDNAKNTLYLQMSSLKSEDTAMYYCTREAIFTYWGQGTLVTVSA
VL: DIKMTQSPSSMYASLGERVTITCKASQDINNYLSWFQQKPGKSPKTLIYRANRVDGVPSRFSGSGSGQDYSLTISSLEYEDMGIYYCLKYDEFPYTFGGGTKLEIK
notes: Mouse hybridoma monoclonal
  binding result: binds
